According to the supplement of paper PMC9170038:

Test system: MS2 coat protein
Assay: apparent KD of MS2 coat protein; designed switch direction (-1 OFF switch, 1 ON switch): -1; higher = weaker reporter binding
Outline: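 The apparent KD reported per design is the median over clusters of curve fits to normalised cluster fluorescence. The RNA switches were transcribed on Illumina chips by stalled E. coli RNA polymerase. SNAP-549-labelled MS2 coat protein was titrated from 0.7 or 1.5 nM, doubling up to 3 µM, in Tris-HCl pH 7.5 buffer containing KCl, MgCl2, BSA, DTT, tRNA and Tween-20, with no input, 200 uM small-molecule ligand, or an oligonucleotide input.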

[1] = Eterna round: R95, input ligand: microRNA oligo, concentration not stated
[2] = Eterna round: R95, input ligand: FMN 200 uM
[3] = Eterna round: R95, input ligand: none
[4] = input ligand: microRNA oligo, concentration not stated

Sequence	apparent KD of MS2 coat protein [1] [µM]	apparent KD of MS2 coat protein (input ligand: FMN 200 uM) [µM]	apparent KD of MS2 coat protein (input ligand: none) [µM]	further results
GGAGUGUGAGGAUAUAUGGUGAAGGUGAAGAGAGAGGAGGAGUAGAAGGUACAUGAGGAUCACCCAUGUUUAGG [JR_Exclu4_Sub072] (puzzle: Exclusion 4)	0.0385	–	–	–
CUUCCACGGAUUGUAUUAAACAUGAGGAUCACCCAUGUCCGGGAUUUAAAACAAGCCCUUUGCUCAGUCCUUAUUGC [Eternabot (L1) Solution 10] (Eterna round: R97, puzzle: Sensor, turn-off variant 1)	–	0.0222	0.0259	–
AAGUACCGUCACGAUAGUGAUGGUACAACAAGCAUGUAAACAUGAGGAUCACCCAUGUCCUCGAUUGCUCGUCUUAU [Sensor 3 - 67] (puzzle: Sensor v3, turn-off variant 2)	0.601	–	–	apparent KD of MS2 coat protein [2]: 0.527 µM; apparent KD of MS2 coat protein [3]: 0.537 µM
UUAAUUAAUUAAGCGCAAGAUCACAUGAGGAUCACCCAUGUAUAGGAUAUCAGCUCGAUUAGAGCUGAGAAGGAUACAUAGCGC [ExNG3/2-A1] (Eterna round: R96, puzzle: Exclusion NG 3)	–	–	–	apparent KD of MS2 coat protein [4]: 0.185 µM
UUCUUGGCAGGAUAUGCUUUUUUAGACAUGAGGAUCACCCAUGUGAUUAUUUUUGGUUUUGCAGAAGGGCCUUAAU [JR_E5_Sub042] (puzzle: Exclusion 5)	0.0599	–	–	–
GGGAAGAACCAACAAGCAAACAUGAGGAUCACCCAUGUUAGUGGUUCGAAUGUAAAGAUUAAGAGAGCUCGUCUUAU [AK-miRNA-r3-9] (Eterna round: R97, puzzle: Sensor, turn-off variant 1)	–	0.018	0.0202	–
CAGAGCAGAGGAUAUACAUGAGGAUCACCCAUGUGAUCAUGCUACGGGACGUUACAUUGUAGAAGGCUGCUUUC [Eternabot (L2) Solution 58] (Eterna round: R97, puzzle: Exclusion 3)	–	0.283	0.0311	–
AACCAGCGAGGAUAUUGUUGGUAAAACAUGAGGAUCACCCAUGUCACGUGAUCUUCCCAACAAGAAGGUGCACUAA [Isrierin] (Eterna round: R97, puzzle: Exclusion 5)	–	0.183	0.0467	–
GUAGAGUAAGGAUAUGGUGAAUAGGAUAGAAUGGUUAGAAACCAGAAGGUACAUGAGGAUCACCCAUGUAAUGU [Excluse me!!!! 16 - Jieux - Exclusion 4] (puzzle: Exclusion 4)	0.0202	–	–	–
GGUGCGUUUGUGAGGAUAUGCUGGUCCUUGGAUCAGCAGAAGGCACAUGAGGAUCACCCAUGUGGUGUCGUCCC [salish99_Bmod_Ex4_041] (puzzle: Brourd's mod of Exclusion 4)	0.21	–	–	–
AGGUCCUUCUGGACACAUGAGGAUCACCCAUGUGAGGUCAGCGAGGAUAUCGGUCUAUAAUGUGACGAGAAGGCGCGGACCGAU [Ex NG3 #59] (Eterna round: R96, puzzle: Exclusion NG 3)	–	0.0168	0.0164	apparent KD of MS2 coat protein [4]: 0.0113 µM
GUAGGGUCAGGAUAUACGCAGACGGUUUCGUCGGGUUAUCUACAUGAGGAUCACCCAUGUAGAAGGGAUCAUAC [Eternabot (L1) Solution 53] (Eterna round: R97, puzzle: Exclusion 2)	–	0.0534	0.0158	–
UUGUUGUAUGUAGGAUAUGCGUGUUAUUAUUAUGCAGAAGGACAUGAGGAUCACCCAUGUGUAUUAUUAUUAUAUAUUAUAUAU [Title] (Eterna round: R96, puzzle: Exclusion NG 1)	–	–	–	apparent KD of MS2 coat protein [4]: 0.0141 µM
ACGCAGAGAGGAUAUACAUGAGGAUCACCCAUGUAUAAACGCACUAACUCUCCUCACUGUAGAAGGCUCAUGCA [Larerige] (puzzle: Exclusion 3)	0.0113	–	–	–
AGAUCACAUGAGGAUCACCCAUGUGAGGAUAUGCUUAAACCGUUGAACCCGGUUUGAGGCAGAAGGUGCGAGGG [Eternabot (L2) Solution 37] (Eterna round: R97, puzzle: Exclusion 1)	–	0.0299	0.0213	–
AGAUGGCGAGGAUAUACAUGAGGAUCACCCAUGUGAAUAAGAAGAGUGAGGAAGAAAAGUAGAAGGCGCUGUCA [Mat - Exclusion 3 - Mod of Salish D31] (puzzle: Exclusion 3)	0.0646	–	–	apparent KD of MS2 coat protein [2]: 0.128 µM; apparent KD of MS2 coat protein [3]: 0.0998 µM

Sequence	apparent KD of MS2 coat protein [1] [µM]	apparent KD of MS2 coat protein (input ligand: FMN 200 uM) [µM]	apparent KD of MS2 coat protein (input ligand: none) [µM]	further results
CUAGCGUAUGUAGGAUAUCGGACUGUUUCAGUCUGAGAAGGACAUGAGGAUCACCCAUGUAUUGCUACGUGAGUAGCUCGCUAG [JL ENG1 3.93] (Eterna round: R96, puzzle: Exclusion NG 1)	–	0.0301	0.0196	apparent KD of MS2 coat protein [4]: 0.0168 µM
GUCAUCAAACAUGGGAUUAACAUGAGGAUCACCCAUGUUAACAAGUUUUUUGCUCGUCUUAUAAUAAGUUUGAUGAC [Antenna 10 - Jieux - Sensor, turn-off variant 1] (Eterna round: R97, puzzle: Sensor, turn-off variant 1)	–	0.0076	0.013	–
AAGAAUUACAUGAGGAUCACCCAUGUAGAGUGGGAAGAGAGAUAGGAUAUGAUGUGAGAAUCAUAUCAGAAGGAUCGAGACUCA [AK ExNG3-2] (Eterna round: R96, puzzle: Exclusion NG 3)	–	0.144	0.138	apparent KD of MS2 coat protein [4]: 0.105 µM
AGAAAUGCCCAUGGCAACAAGCUUUUUGCUUGUCUUACCACAUGAGGAUCACCCAUGUGACAUGGGCUCCUGAUAAU [Ladidier] (puzzle: Sensor v3, turn-off variant 2)	0.0106	–	–	apparent KD of MS2 coat protein [2]: 0.0124 µM; apparent KD of MS2 coat protein [3]: 0.0122 µM
UCCUCACAUGAGGAUCACCCAUGUCAGGAUAUGUACCCGAUCAAGUCAGAGAUCGGAAGCAGAAGGGACUGCGG [Larebeti] (puzzle: Exclusion 1)	0.0707	–	–	apparent KD of MS2 coat protein [2]: 0.0265 µM; apparent KD of MS2 coat protein [3]: 0.0592 µM
GCAUGGCGAGGAUAUACAUGAGGAUCACCCAUGUGAGAAGAAUAAGUGAGGAAGAAAAGUAGAAGGCGCUGUGG [Mat - Exclusion 3 - Mod of Salish D63] (puzzle: Exclusion 3)	0.0515	–	–	apparent KD of MS2 coat protein [2]: 0.128 µM; apparent KD of MS2 coat protein [3]: 0.085 µM
CAGGAUAGAGGAUAUACAUAGAUACAGAUUCAUGUGGUCCUACAUGAGGAUCACCCAUGUAGAAGGCUAUCCUG [Fiskers Ex 2 - 22] (puzzle: Exclusion 2)	0.18	–	–	–
UUAGAAUUGUUAGGAUAUUAAUUAUUGUAUAGUAUGAUCUACAUGAGGAUCACCCAUGUUAAAUAUAAGAAGGAACGUUAGAUU [JR_ExcNG2_Sub094] (Eterna round: R96, puzzle: Exclusion NG 2)	–	–	–	apparent KD of MS2 coat protein [4]: 0.0423 µM
UUUAGUUCAGGAUAUGUAGACAUUAACAUGAGGAUCACCCAUGUAGAUCCUGAAUUAACUACAGAAGGGAGCAUUU [Mod of Brourd 8 - Jieux - Exclusion 5] (Eterna round: R97, puzzle: Exclusion 5)	–	0.0193	0.0153	–
UCAUUGGUAGGAUAUACAUGAGGAUCACCCAUGUGUCCGGAGCAGUAUGCUUGAAAACGUAGAAGGACCUAGGA [Eternabot (L1) Solution 15] (Eterna round: R97, puzzle: Exclusion 3)	–	0.0453	0.0404	–
UUGUGCACGCUGCGGUCCUACAUGAGGAUCACCCAUGUGGUCUGGUGGCGUGGGUCGCCGGACUUGGCUCGUCUUGG [salish99_S_TOV1_R5_026] (Eterna round: R97, puzzle: Sensor, turn-off variant 1)	–	0.0169	0.0169	–
UAAUUAAUUAAUUAAUAAUACAUGAGGAUCACCCAUGUAGAUCCUACAUACAAGCUAAGUAGCUCGUCUUAUAAUUA [Stov1/2-A1] (Eterna round: R97, puzzle: Sensor, turn-off variant 1)	–	0.364	0.353	–
AGUAACUAUCACGAAAGUGAUAGUUACACAAGCAGUGAUACAUGAGGAUCACCCAUGUCCUCAUUUGCUCGUCUUAU [Sensor 3 - 28] (Eterna round: R96, puzzle: Sensor v3, turn-off variant 2)	–	0.0874	0.0919	apparent KD of MS2 coat protein [4]: 0.472 µM
UGUUCGUCAGGAUAUUCUACUUAUUACAUGAGGAUCACCCAUGUGUAUGUACAAGGGUGUGAAGAAGGGACUUGUU [LRO-Excl5-08-mod A17d by Omei] (Eterna round: R97, puzzle: Exclusion 5)	–	0.245	0.885	–
GGAGGAACCGGAGGAUAUUGAUUUAAGCGGUUACGCAAGACAUGAGGAUCACCCAUGUGUCCGGACGAGAAGGCCGAAGAAGAA [ExNG2 3rd] (Eterna round: R96, puzzle: Exclusion NG 2)	–	0.0437	0.0389	apparent KD of MS2 coat protein [4]: 0.0306 µM
